Results on 1 substance are retold here after doi:10.1101/2022.10.05.510992.

The assay concerns the target Sodium-bicarbonate co-transporter NBCn1 (SLC4A7), native in human cells (human (endogenous in MCF-7 and HEK293T)) (UniProt Q9Y6M7). Nature of the assay: proximity ligation.
Chain of UniProt Q9Y6M7 (Q9Y6M7 whole entry): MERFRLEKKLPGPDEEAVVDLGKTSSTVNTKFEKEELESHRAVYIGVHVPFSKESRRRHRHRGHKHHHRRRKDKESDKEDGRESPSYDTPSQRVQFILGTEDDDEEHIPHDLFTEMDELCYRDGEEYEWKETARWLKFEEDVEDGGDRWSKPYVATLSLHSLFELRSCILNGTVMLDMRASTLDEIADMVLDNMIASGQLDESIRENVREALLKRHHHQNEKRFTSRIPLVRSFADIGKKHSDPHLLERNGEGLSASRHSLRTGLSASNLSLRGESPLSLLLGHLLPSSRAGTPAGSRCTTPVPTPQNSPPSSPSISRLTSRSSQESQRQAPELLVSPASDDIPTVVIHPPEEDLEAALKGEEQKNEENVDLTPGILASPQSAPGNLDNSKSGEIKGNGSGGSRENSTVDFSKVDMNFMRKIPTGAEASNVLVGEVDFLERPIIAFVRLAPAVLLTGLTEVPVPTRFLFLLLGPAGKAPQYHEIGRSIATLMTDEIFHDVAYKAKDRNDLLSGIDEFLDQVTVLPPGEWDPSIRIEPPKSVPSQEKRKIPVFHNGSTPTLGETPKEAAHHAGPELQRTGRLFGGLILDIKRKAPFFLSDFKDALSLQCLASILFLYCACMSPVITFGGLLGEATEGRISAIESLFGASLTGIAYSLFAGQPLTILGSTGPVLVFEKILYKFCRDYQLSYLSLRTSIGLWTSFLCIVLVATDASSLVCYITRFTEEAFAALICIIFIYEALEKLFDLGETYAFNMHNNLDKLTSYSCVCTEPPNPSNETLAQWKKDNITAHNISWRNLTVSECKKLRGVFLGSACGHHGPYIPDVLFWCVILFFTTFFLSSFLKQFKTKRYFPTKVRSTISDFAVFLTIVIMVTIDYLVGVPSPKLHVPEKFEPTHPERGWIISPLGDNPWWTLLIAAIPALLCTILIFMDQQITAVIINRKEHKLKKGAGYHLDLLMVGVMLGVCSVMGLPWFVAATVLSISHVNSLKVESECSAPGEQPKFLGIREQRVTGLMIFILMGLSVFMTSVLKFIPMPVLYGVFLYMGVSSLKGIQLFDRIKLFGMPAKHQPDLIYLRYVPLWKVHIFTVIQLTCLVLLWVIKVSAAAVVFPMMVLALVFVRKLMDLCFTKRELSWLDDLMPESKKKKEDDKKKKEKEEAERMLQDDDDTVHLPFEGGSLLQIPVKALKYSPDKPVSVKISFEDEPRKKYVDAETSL

Take “E-cadherin, native in MCF-7 cells (natural protein)”: the PLA signal, fold over the NBCn1-NHE1 control was 4 fold and the PLA signal, fold over the negative control (only NBCn1 antibody) was 11 fold.
